According to publication PMC7862291 (2021):

B1: wild type human KMO (Hs-KMO), NanoBRET constructs [human] / itself (parent complex)
chain: MDSSVIQRKKVAVIGGGLVGSLQACFLAKRNFQIDVYEAREDTRVATFTRGRSINLALSHRGRQALKAVGLEDQIVSQGIPMRARMIHSLSGKKSAIPYGTKSQYILSVSRENLNKDLLTAAEKYPNVKMHFNHRLLKCNPEEGMITVLGSDKVPKDVTCDLIVGCDGAYSTVRSHLMKKPRFDYSQQYIPHGYMELTIPPKNGDYAMEPNYLHIWPRNTFMMIALPNMNKSFTCTLFMPFEEFEKLLTSNDVVDFFQKYFPDAIPLIGEKLLVQDFFLLPAQPMISVKCSSFHFKSHCVLLGDAAHAIVPFFGQGMNAGFEDCLVFDELMDKFSNDLSLCLPVFSRLRIPDDHAISDLSMYNYIEMRAHVNSSWFIFQKNMERFLHAIMPSTFIPLYTMVTFSRIRYHEAVQRWHWQKKVINKGLFFLGSLIAISSTYLLIHYMSPRSFLRLRRPWNWIAHFRNTTCFPAKAVDSLEQISNLISR

Variants of: B1
Experiment: NanoBRET; HEK293T cells; + ligand (TMR ligand); n = 6; read off a plot

Row | response [mBU] | Variant
1 | ~78 | chain 1 D184A, chain 1 Y185P, chain 1 Q187A
